Legend:
[1] = molecular target: T1, Cdc24p fused to the GAL4 DNA binding domain (pAS1Cdc24) (S. cerevisiae, UniProt P11433 1-854); experiment: two-hybrid
T1 sequence: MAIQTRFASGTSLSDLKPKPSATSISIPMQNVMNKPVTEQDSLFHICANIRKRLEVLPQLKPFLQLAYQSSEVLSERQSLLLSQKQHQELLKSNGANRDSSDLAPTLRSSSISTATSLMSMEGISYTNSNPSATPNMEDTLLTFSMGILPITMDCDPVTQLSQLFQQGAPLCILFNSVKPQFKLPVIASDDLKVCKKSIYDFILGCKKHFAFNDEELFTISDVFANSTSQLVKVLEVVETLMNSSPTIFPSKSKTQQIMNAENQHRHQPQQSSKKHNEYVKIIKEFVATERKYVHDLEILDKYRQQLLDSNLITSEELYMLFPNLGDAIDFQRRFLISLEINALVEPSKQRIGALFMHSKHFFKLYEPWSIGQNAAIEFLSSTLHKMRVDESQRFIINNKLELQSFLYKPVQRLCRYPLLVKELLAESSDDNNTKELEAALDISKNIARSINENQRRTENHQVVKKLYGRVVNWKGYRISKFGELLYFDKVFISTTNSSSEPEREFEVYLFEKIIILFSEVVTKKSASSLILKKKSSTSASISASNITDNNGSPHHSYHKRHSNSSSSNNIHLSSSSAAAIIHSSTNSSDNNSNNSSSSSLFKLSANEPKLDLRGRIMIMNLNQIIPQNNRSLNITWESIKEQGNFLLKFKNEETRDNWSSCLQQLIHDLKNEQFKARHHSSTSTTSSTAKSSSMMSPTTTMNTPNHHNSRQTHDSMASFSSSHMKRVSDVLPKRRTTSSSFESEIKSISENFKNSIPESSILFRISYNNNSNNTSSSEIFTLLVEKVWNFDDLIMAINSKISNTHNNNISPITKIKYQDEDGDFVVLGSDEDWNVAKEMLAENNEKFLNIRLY

[2] = molecular target: T2, MBPFar1 (Far1p residues 133–831 fused to maltose binding protein) (S. cerevisiae, UniProt P21268 133-830); experiment: […]
T2 sequence: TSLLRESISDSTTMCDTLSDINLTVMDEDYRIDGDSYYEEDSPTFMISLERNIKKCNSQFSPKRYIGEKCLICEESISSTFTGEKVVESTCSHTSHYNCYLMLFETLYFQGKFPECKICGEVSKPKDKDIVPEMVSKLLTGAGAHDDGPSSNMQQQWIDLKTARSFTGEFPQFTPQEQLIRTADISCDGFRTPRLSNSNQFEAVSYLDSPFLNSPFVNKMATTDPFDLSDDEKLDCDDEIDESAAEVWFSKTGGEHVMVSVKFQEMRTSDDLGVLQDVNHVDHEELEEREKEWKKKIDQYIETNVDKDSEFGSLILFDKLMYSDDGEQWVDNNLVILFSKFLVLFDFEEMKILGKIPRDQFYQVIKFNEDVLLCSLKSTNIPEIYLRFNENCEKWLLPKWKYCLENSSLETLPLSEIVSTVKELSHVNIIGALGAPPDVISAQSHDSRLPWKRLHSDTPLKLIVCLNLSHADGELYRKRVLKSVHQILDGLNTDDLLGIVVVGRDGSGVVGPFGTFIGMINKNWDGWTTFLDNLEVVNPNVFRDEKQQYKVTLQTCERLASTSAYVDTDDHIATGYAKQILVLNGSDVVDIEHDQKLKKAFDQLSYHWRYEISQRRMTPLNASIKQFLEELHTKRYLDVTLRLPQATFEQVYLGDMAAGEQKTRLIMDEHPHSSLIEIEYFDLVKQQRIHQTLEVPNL

B1: Ste4p (Gβ) fused to the GAL4 activation domain (pGAD424Ste4) (natural protein)
chain: MAAHQMDSITYSNNVTQQYIQPQSLQDISAVEDEIQNKIEAARQESKQLHAQINKAKHKIQDASLFQMANKVTSLTKNKINLKPNIVLKGHNNKISDFRWSRDSKRILSASQDGFMLIWDSASGLKQNAIPLDSQWVLSCAISPSSTLVASAGLNNNCTIYRVSKENRVAQNVASIFKGHTCYISDIEFTDNAHILTASGDMTCALWDIPKAKRVREYSDHLGDVLALAIPEEPNSENSSNTFASCGSDGYTYIWDSRSPSAVQSFYVNDSDINALRFFKDGMSIVAGSDNGAINMYDLRSDCSIATFSLFRGYEERTPTPTYMAANMEYNTAQSPQTLKSTSSSYLDNQGVVSLDFSASGRLMYSCYTDIGCVVWDVLKGEIVGKLEGHGGRVTGVRSSPDGLAVCTGSWDSTMKIWSPGYQ
fold increase in LacZ activity with Gγ overexpressed [1]: ~2 fold | further fold increase in LacZ activity with Far1p also overexpressed [1]: ~3.5 fold

B2: GSTCdc24 (NH2-terminal 472 amino acids of Cdc24p fused to GST) (domain or fragment)
chain: MAIQTRFASGTSLSDLKPKPSATSISIPMQNVMNKPVTEQDSLFHICANIRKRLEVLPQLKPFLQLAYQSSEVLSERQSLLLSQKQHQELLKSNGANRDSSDLAPTLRSSSISTATSLMSMEGISYTNSNPSATPNMEDTLLTFSMGILPITMDCDPVTQLSQLFQQGAPLCILFNSVKPQFKLPVIASDDLKVCKKSIYDFILGCKKHFAFNDEELFTISDVFANSTSQLVKVLEVVETLMNSSPTIFPSKSKTQQIMNAENQHRHQPQQSSKKHNEYVKIIKEFVATERKYVHDLEILDKYRQQLLDSNLITSEELYMLFPNLGDAIDFQRRFLISLEINALVEPSKQRIGALFMHSKHFFKLYEPWSIGQNAAIEFLSSTLHKMRVDESQRFIINNKLELQSFLYKPVQRLCRYPLLVKELLAESSDDNNTKELEAALDISKNIARSINENQRRTENHQVVKKLYGRVV
binding result [2]: binds

From article PMC2150586 (The Journal of Cell Biology, 1999)
